# Test results reported in PMC7188823, “The BRCA2-MEILB2-BRME1 complex governs meiotic recombination and impairs the mitotic BRCA2-RAD51 function in cancer cells” (Nature Communications, 2020).
# T1: MEILB2 C-terminus (a.a. 87–338) (Mus musculus (Mouse), UniProt Q9D4G2)
# T1 chain: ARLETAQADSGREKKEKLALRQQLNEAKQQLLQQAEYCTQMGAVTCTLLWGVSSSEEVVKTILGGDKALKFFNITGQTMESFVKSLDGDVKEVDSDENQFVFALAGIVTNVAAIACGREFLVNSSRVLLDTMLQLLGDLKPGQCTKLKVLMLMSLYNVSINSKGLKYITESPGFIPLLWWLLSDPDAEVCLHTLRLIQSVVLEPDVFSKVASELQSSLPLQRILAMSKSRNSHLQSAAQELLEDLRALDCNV
# B1: MEILB2 α1 (a.a. 18–55; tag removed) (domain or fragment, mouse, UniProt Q9D4G2 18-55, looked up)
# chain: MESKEEFVKVRKKDLERLTTEVMQIRDFLPRILNGELL
# notes: MEILB2/HSF2BP, mouse, α1, a.a; 18-55; source: E. coli BL21 (DE3), purified (Ni-NTA, amylose, ion exchange, TEV cleavage, size-exclusion chromatography); not shown: MBP, N-terminal, cleaved
# B2: MEILB2 C-terminus (a.a. 87–338) (domain or fragment, mouse, UniProt Q9D4G2 87-338, looked up)
# chain: T1 chain
# notes: MEILB2/HSF2BP, mouse, a.a; 87-338 (27.9 kDa in theory); pET-Duet for the co-expression, pSmt3 for the protein alone; also called mMEILB2 a.a; 87–338; source: E. coli BL21(DE3), purified (Ni-NTA, Ulp1 cleavage, cation exchange, size-exclusion chromatography); expressed alone or co-expressed with BRCA2 (a.a. 2219–2285); not shown: 10x His-Smt3, N-terminal, cleaved
# B3: BRCA2-MBD fragment (a.a. 2219–2285) (domain or fragment, mouse, UniProt P97929 2219-2285, looked up)
# chain: KRGGVTVDAVGQPPIKRSLLNEFDRIIESKGKSLTPSKSTPDGTVKDRSLFTHHMSLEPVTCGPFCS
# notes: BRCA2, mouse, a.a; 2219-2285 (7.4 kDa in theory by the text); the His-Smt3 tag holds for the protein expressed alone (pSmt3); in the co-expression (pET-Duet) BRCA2 was untagged; also called mBRCA2 a.a; 2219–2285; source: E. coli BL21(DE3), purified (Ni-NTA, Ulp1 cleavage, size-exclusion chromatography, cation exchange); expressed alone or co-expressed untagged with His-Smt3-MEILB2 (a.a. 87–338)
# Tests used:
# [1] = molecular target: MEILB2 α1+2 (tag removed) (mouse); assay: SEC-MALS; Superdex 200 Increase 10/300 GL; 20 mM Tris (pH 8.0), 150 mM KCl, 2 mM DTT; samples at >1 mg/ml; MEILB2 fragments alone or as purified complexes with BRME1-MBD
# [2] = molecular target: MEILB2 α1 (a.a. 18–55; tag removed) (mouse) (UniProt Q9D4G2); assay: as above
# [3] = molecular target: the molecule itself; assay: as above
# [4] = molecular target: the molecule itself; assay: SEC-MALS; individual proteins; 500 µg on Superdex 200 10/300 at 0.5 ml/min
# [5] = molecular target: the molecule itself; assay: SEC-MALS; purified MEILB2 (a.a. 87–338)-BRCA2 (a.a. 2219–2285) heterocomplex; 500 µg on Superdex 200 10/300 at 0.5 ml/min
# [6] = molecular target: B2; assay: as above; conditions: both partners purified
# [7] = molecular target: T1, MEILB2 C-terminus (a.a. 87–338); assay: co-expression co-purification, SEC and SEC-MALS
molecule,measurement,setting,value
"BRME1-MBD (a.a. 519–600), recombinant, His-tagged (from UniProt Q6DIA7 519-600) (domain or fragment)",stoichiometry N (BRME1-MBD per MEILB2 chain (2:2)),[1],1
same,stoichiometry N (BRME1-MBD per MEILB2 chain (2:2)),[2],1
B1,stoichiometry N,[3],4 chains in the oligomer
B2,stoichiometry N,[4],2 chains in the oligomer
same,stoichiometry N,[5],4 chains in the oligomer
B3,stoichiometry N,[6],~0.5 BRCA2 per MEILB2 chain (4:2 MEILB2:BRCA2)
same,binding result,[7],binds
